Data taken from patent publication US20260183437A1, “VHH ANTIBODY CONJUGATES WITH HETEROARYL CHELATORS” (ABDERA THERAPEUTICS INC., priority 2022, published 2026).
Positions count from the first letter of the chain named.

Key:
[1] = target: T1, FcγRIIIa (F176) (Homo sapiens, UniProt P08637); assay: FcγR affinity by biolayer interferometry (Octet Red96e); type: binding
T1 construct: purchased Acro Biosystems
Procedure: (§1) VHH-Fcs were also tested for affinity to FcγRs by biolayer interferometry using the Octet Red96e platform. Each cycle is performed with orbital shake speed of 1,000 rpm. Streptavidin (SA) biosensors (Sartorius 18-5019) were rehydrated for 10 mins using kinetics buffer (PBS+0.1% BSA+0.02% Tween-20). Biotinylated-FcγRs (Acro Biosystems) were then loaded for 40-100 s onto SA biosensors at concentrations ranging between 1-5 μg/mL diluted in PBS. VHH-Fcs were serially diluted 1:2 in sample buffer (PBS+0.02% Tween-20) with starting concentrations ranging between 5000 nM to 37.5 nM. Loaded biosensors were then associated with VHH-Fcs for 60-120 s. VHH-Fc dissociation was measured for 30-900 s in sample buffer. Bound VHH-Fcs were then removed using 3 cycles of 5 s regeneration buffer (150 mM NaCl, 300 mM Sodium Citrate) and 5 s sample buffer. The data was analyzed either using a globally-fitted 1:1 Langmuir binding model (FcγRI) or steady state analysis (Octet software version HT v11.1).

[2] = target: T2, FcγRIIIa (V176) (Homo sapiens, UniProt P08637, F176V); assay: as above; type: binding
T2 construct: purchased Acro Biosystems
T2 sequence (P08637 17-208 F176V limits assumed): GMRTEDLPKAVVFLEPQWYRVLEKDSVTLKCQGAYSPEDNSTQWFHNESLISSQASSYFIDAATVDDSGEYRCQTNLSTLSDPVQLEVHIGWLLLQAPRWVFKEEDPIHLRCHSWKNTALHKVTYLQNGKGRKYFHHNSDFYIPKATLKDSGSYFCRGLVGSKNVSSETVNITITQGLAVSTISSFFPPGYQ
Procedure: as §1

[3] = target: T3, FcγRI (Homo sapiens, UniProt P12314); assay: as above; type: binding
T3 construct: purchased Acro Biosystems
T3 sequence (P12314 16-374): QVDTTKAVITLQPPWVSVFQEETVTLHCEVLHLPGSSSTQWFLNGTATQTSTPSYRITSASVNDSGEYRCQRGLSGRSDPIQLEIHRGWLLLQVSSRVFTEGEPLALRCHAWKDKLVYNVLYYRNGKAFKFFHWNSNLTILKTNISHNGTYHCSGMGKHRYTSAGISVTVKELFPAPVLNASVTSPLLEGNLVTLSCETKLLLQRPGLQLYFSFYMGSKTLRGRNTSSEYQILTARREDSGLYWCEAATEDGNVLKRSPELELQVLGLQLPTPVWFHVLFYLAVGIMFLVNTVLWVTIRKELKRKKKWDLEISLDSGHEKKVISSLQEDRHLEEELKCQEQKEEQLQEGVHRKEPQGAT
Procedure: as §1

[4] = target: T4, FcγRIIb/c (Homo sapiens, UniProt P31994); assay: as above; type: binding
T4 construct: purchased Acro Biosystems
T4 sequence (P31994 43-310): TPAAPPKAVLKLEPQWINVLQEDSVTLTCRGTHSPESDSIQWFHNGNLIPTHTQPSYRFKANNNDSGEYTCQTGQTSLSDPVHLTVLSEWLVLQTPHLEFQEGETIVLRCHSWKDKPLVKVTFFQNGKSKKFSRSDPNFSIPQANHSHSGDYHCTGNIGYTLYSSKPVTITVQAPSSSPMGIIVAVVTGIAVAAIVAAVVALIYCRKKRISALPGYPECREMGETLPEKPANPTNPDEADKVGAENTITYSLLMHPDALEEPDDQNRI
Procedure: as §1

[5] = target: T5, FcγRIIa (R167) (Homo sapiens, UniProt P12318, H167R); assay: as above; type: binding
T5 construct: purchased Acro Biosystems
T5 sequence (P12318 36-218 H167R limits assumed): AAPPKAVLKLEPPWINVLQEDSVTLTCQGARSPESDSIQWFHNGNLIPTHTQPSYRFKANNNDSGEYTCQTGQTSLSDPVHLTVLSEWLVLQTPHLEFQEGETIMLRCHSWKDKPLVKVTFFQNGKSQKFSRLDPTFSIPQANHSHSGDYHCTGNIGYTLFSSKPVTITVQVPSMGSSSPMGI
Procedure: as §1

[6] = target: T6, FcγRIIa (H167) (Homo sapiens, UniProt P12318); assay: as above; type: binding
T6 construct: purchased Acro Biosystems
T6 sequence (P12318 36-218 limits assumed): T5 sequence (P12318 36-218 H167R limits assumed) with R132H
Procedure: as §1

[7] = Thermal stability by differential scanning fluorimetry (DSF); type: physicochemical
Procedure: Denaturing temperatures (Tm) of VHH-Fes were determined from differential scanning fluorimetry (DSF) using Protein Thermo Shift Dye Kit™ (ThermoFisher, Cat #: 4461146). Briefly, A total of 1 μg of antibody was used in each reaction. Melting curves of the antibodies were generated using an Applied Biosystems QuantStudio 7 Flex Real-Time PCR System with the recommended settings stated in the kit manual. The Tm's of the antibodies in Table 1 were then determined by using the ThermoFisher Protein Thermal Shift software (v.1.3). Tm1 of the VHH-Fcs was determined by DSF.

[8] = test system: HEK-DLL3 cells; assay: Internalization assay (pHAb dye labelled secondary antibody, flow cytometry); type: cell-based; settings: 75 nM, 37° C.
Procedure: (§2) VHH-Fcs were tested for internalization by target-expressing cells using a secondary antibody conjugated to a pH sensitive dye. Goat anti-hu IgG-Fc secondary antibody was amine-conjugated to a pH sensitive pHAb dye (Promega Cat #G9845) according to the manufacturer's instructions. The pHAb dye has low or no fluorescence at pH>7 but fluoresces in acidic environment upon antibody internalization. […] VHH-Fcs and hIgG1 isotype control were diluted in media to 75 nM. Cells were spun to remove supernatant, resuspended with the prepared primary antibodies and incubated on ice for 1 hour. Excess primary antibody was washed off from cells and then incubated with pHAb labelled secondary antibody on ice for 30 minutes. Excess secondary was then washed off and cells were resuspended in media. One set of samples was placed in an incubator at 37° C. to allow internalization, and another set was left on ice (0° C.) as a binding only control. Cells were sampled at different time points ranging from 0 to 24 hours. Cells were stained with DAPI and read by flow cytometry on 572/28 channel with iQue screener platform. The VHH-Fcs show higher fluorescence than the negative controls (isotype, buffer) on target-positive cells.

[9] = test system: SHP-77 cells; assay: as above; type: cell-based; settings: 75 nM, 37° C.
Procedure: as §2

[10] = target: T7, hFcRn (Homo sapiens, UniProt P55899); assay: FcRn affinity by biolayer interferometry (Octet RED96e), pH 6.0; settings: pH 6.0, 2:1 binding model
T7 construct: purchased Sino Biological CT071-H27H-B
T7 sequence (P55899 24-297 limits assumed): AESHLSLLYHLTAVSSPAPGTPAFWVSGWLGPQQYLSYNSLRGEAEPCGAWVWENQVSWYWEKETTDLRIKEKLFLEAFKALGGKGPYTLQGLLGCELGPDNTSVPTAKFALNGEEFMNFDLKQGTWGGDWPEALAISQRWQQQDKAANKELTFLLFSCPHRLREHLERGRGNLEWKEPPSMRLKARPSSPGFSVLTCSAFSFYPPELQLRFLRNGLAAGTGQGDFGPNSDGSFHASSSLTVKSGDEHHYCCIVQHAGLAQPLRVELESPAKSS
T7 sequence (P61769 21-119 partner): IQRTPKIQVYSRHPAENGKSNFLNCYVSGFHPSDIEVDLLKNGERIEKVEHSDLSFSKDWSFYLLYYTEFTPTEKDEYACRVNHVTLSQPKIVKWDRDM
Procedure: FcRn affinity of VHH-Fc can generally be used to predict the half-life of antibody serum clearance. (See, e.g., Datta-Mannan A et al. “FcRn affinity-pharmacokinetic relationship of five human IgG4 antibodies engineered for improved in vitro FcRn binding properties in cynomolgus monkeys.” Drug Metab Dispos. 2012 August; 40(8):1545-55). Briefly, 10 nM of biotinylated hFcRn (Sino Biological, Cat #: CT071-H27H-B) was captured with the SA biosensor using Octet RED96e (Fortebio). The hFcRN coated biosensor was dipped into the sample solutions in sodium phosphate buffer (100 mM Na2HPO4, 150 mM NaCl w/ 0.05% Tween-20, pH 6.0) with serial concentrations of tested antibodies and the association measured. The dissociation was measured by dipping the biosensors into sodium phosphate buffer without antibody. The KD values were determined using Octet Data Analysis HT 11.0 software. 2:1 (Heterogeneous Ligand) binding model was used in analysis. […] Changes in FcRn affinity were consistent across targets. Constructs with Fc Effector mutation only have no impact on FcRn affinity.

T1 sequence (P08637 17-208 limits assumed): as the sequence (P08637 17-208 F176V limits assumed) above, with V160F counted along it

Substance: H101: anti-HER2 VHH-Fc (2RS15d VHH, human IgG1 Fc); FcRn wt, Fc effector wt [Compound H101]
- Kd [1]: 1600 nM
- Kd [2]: 480 nM
- Kd [3]: 1.01 nM
- Kd [4]: 450 nM
- Kd [5]: 160 nM
- Kd [6]: 340 nM
- Tm1 (thermostability) by DSF [7]: 67.5±0.1 Celsius
- Internalization [8]: internalized
- Internalization [9]: internalized
- Kd [10]: 3.7 nM
